# Measured values: the supplement of paper PMC12455559
# How the values were obtained:
# [1] = melting temperature (DSF); higher = more thermostable
# Summary of the method: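 After expression in E. coli C41(DE3), the candidate enzymes were bound to nickel beads and released with SUMO protease. Their melting temperature was found by differential scanning fluorimetry with Sypro Orange on a Bio-Rad CFX96. Each sealed PCR plate well held 45 μL enzyme (0 to 0.3 mg/mL) plus 5 μL 5X dye, and fluorescence was read for 250 cycles from 25 °C at 0.3 °C per cycle (ramp 0.3 °C/s).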
# [2] = purified protein yield per well (BCA); higher = higher soluble expression
# Summary of the method: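 Expression was done in E. coli C41(DE3), using 2 mL autoinduction cultures with 100 µg/mL kanamycin incubated at 37 °C for 2 h and at 18 °C for 40 h. Protein was purified on Ni-charged magnetic beads and released by SUMO protease cleavage. Yield of purified protein per well was measured with the Pierce Rapid Gold BCA kit; values below 25 ug (0.1 mg/mL) are below detection.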
# [3] = PET hydrolysis, aromatic products released after 48 h (umol product/mg enzyme); higher = more PET depolymerization activity; settings: substrate: cryPow
# Summary of the method: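 Reactions ran in sealed plates without shaking for 48 h at 40 or 60 °C. Each held 3.5 mg amorphous PET film or crystalline PET powder, 450 μL buffer and 5 μg (50 μL) of tagless, SUMO-cleaved, nickel-purified candidate enzyme. Buffers were 50 mM NaCitrate at pH 4.5 or 5.5, 50 mM NaPhosphate at pH 6.5 or 7.5, and glycine at pH 8.5. The supernatant's aromatic product, read at 260 and 280 nm against buffer blanks, gives PET hydrolysis activity per mg enzyme.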
Sequence,melting temperature [1],purified protein yield per well [2],"PET hydrolysis ([3]; 40 °C, pH 4.5)","PET hydrolysis ([3]; 40 °C, pH 5.5)","PET hydrolysis ([3]; 40 °C, pH 6.5)","PET hydrolysis ([3]; 40 °C, pH 7.5)","PET hydrolysis ([3]; 60 °C, pH 4.5)","PET hydrolysis ([3]; 60 °C, pH 5.5)","PET hydrolysis ([3]; 60 °C, pH 6.5)","PET hydrolysis ([3]; 60 °C, pH 7.5)","PET hydrolysis ([3]; 40 °C, pH 8.5)","PET hydrolysis ([3]; 60 °C, pH 8.5)"
ADNPYQRGPDPTPQSISAPTGPFATASVTVPRQGNFGGGVIYYPTDTSQGTFGAVAISPGLNGTWPGIAWLGPRLSSQGFVVFGIDTLGLSDSTASRGSQLLAALDYLTQTSSVRTRVDSSRLAVAGHSMGGGGAFEAALRRPALKAAIPNAPFFPGSASNVRVPTLITAMQNDSLVGQNRNAYNGIPAGVEKAYVELAGAGHNQIGQPTTAIARNWIPWLKIFVDSDARYHQFLCPTTDMSGLSQYLNTCPLISTTPPTSSPSAQPTTPGPTGPPPGGACAATYRTVNSWSDGYQGEMTVQAGSSAINGWTVRWTMSGGQTISQVWNGTLVAGSGAAAVRNVAYNGSLAAGASTTFGFISSGTPSATSITCGSP [ESM081],68.2 C,182 µg,4,17,45,82,–,–,–,–,–,–
ADNPYQRGPDPSRTSVATETGPFANASVSVPTGYGFNGGRIYYPTDSSQGTFGAIAISPGYTALFSAELAWMGPWLASHGFVVIGIETNSRNDFDTARGTQLLAALDYLTQQSPVRDRVDPNRLAVAGHSMGGGGALSAAVRRSSLKAAVGIAPYSPSSNLANDRVPTMVFSGQADTVVTPSYAIGLYNSLPTTTESVYLEVAGADHGFMVGRSNPVMIRTMLPFVKMFIDNDTRYSQFLCPLLDSSGVVTYRSTCPLLPTTPTTPPVNPTTPPVNPTVSPTGAPGSASEIVGVQSGRCVDVPNASRTNGTRVQLYDCNRQSQQSWTYTSGRQLRVYGDMCLDAAGSGNGAAVQIYACHSQTNQQWNVNSNGTISGVQSGRCLDVWSTANGAQVQLYDCHGQTNQRFNVMPLAR [TEP092],60.4 C,154 µg,5,10,8,3,< 3,< 3,< 3,< 3,–,–
ADNPYQRGPAPTAASIAADRGPFATAQVTVPRGNGFGGGVIYYPTDTSQGTFGAIAIAPGFGTAWSYYAWQGPRLASFGFVVIGIETNTLNDYADARAAQLLAALDYLVNSSSVRDRVDRNRLAVGGHSMGGGGAILAANQRPSLLTAVGQAPYVPDGSLSGIKSPTIIFAGQADGTVTPQYAQNAYNTIPGSVERAYVEIANEGHGFPAGGGGGNSGAFARTMMVWLKLFVDKDTRYAPFLCPSLTNANGISKYMASCPLDPPGGGPTASPTSTPTSTPTSTPTSTPTGTPPAGGTSALRGVASGRCLDVNGASQANGATVLIWDCNGQNNQKWTSTSAGELRVYGNKCLDVNGGGTADGSAVIIWDCNGQSNQKWRLNSDGSITAVGANKCLDVSGNGTANGTRVQIWSCTGGTNQKWTRV [ESM010],64.6 C,79.7 µg,< 3,3,4,5,< 3,< 3,< 3,< 3,–,–
SPSPGTPGGDNPYQRGPDPTVASVAAQYGPFATAQITVPPGNGFNGGFIYYPTDTSHTYGAVAIVPGYTALFADEEAWMGPRLASFGFVVIGVETNSRTDYDTARGTQLLAALDYLTNSSAVRDRVDRNRLSVIGHSMGGGGSLYAATQRPSLKAAIGLAPFKPSGNLASDTVPTMIIGGINDTTVTPSYLDGLYPTLPAATPGAYLQLANADHLYFTRPNDIELRSQIEWLKIFVDNDTRYTPFLCPSVKDTTGIVRSSVKCSTVPGGGSTPSSSRILGTQSGRCVDVPGATHNNGTRVQLYDCNGQANQQWTYTSSKQLTVYGTVCLDAAGSGNGSAVQIYSCNGQANQQWNVNANGTITGVQSGRCLDVWGTGNGQQIQIYDCNGQANQKFSLN [ESM136],55.6 C,61.4 µg,5,18,13,< 3,< 3,< 3,< 3,< 3,–,–
VEIGPNPTSTLLNGNGPFSVSSSSVSSWVSGFGGGTIYYPTASGQYGVIAVCPGYTGTSSSISWFARRLATHGFVTIAMNTNSRFDFPDSRATQLAAALNYLLNSSSSTIRSRIRTADRGVAGHSMGGGGTLRASERDSNLKVGIPLTPWHTDKTWGSLSVPQMIFGADGDTVAPASSHARTFYNSIPSSTKKAYALLNNASHFTPNSTDERIGRYGVAFAKRFVDGDTRYEPFLCGAEHSTYATSWKFDTYLSTCPYGGGSEPEPDYPWWYWWR [ESM162],69.7 C,31.8 µg,< 3,< 3,< 3,< 3,–,–,–,–,–,–
QTNPFQRGPAPTEATLEATRGPMATSQFTVSRPSGYRAGTVYYPTNAGGTVGGIVVVPGYTAYQSDINWWGPRLASWGFIVMTIDTNSTLDQPASRSRQQLAALDQLATLSRTSSSPIYNKLDTNRMGVMGWSMGGGGSLISTENRPSLKASIPFAPWNSTENFSSVTVPTLIIACQDDSIAPVYSHASPFYNSMTRNPKQFLEVRGEGHYCANSSNSDKDFLGKKGVAWMKRFMDNDTRFTTFACTNQESSLDVSDFRTARCS [DP032],44.5 C,38 µg,–,< 3,< 3,< 3,–,–,–,–,< 3,–
ADNPYQRGPDPTNASIEAATGPFAVGTQPIVGASGFGGGQIYYPTDTSQTYGAVVIVPGFISVWAQLNWLGPRLASQGFVVIGIETSVITDLPDPRGDQALAALDWATTRSPVASRIDRTRLAAAGWSMGGGGLRRAALQRPSLKAIVGMAPWNGERNWSAVTVPTLFFGGSSDAVASPNDHAKPFYNSITRAEKDYIELRNADHFFPTSANTTMAKYFISWLKRWVDNDTRYTQFLCPGPSTGLFAPVSASMNTCPF [DP077],60.1 C,87 µg,–,24,73,90,–,6,23,32,87,26
AANPYERGPAPTDAVLEASRGPFATTSYSVSGLSVTGFGGGVVYYPTSTSEGTFGAIAISPGYTATWSSLSWLGPRIASHGFVVIGIETNTLLDQPDSRGRQLLAALDYLVQRSSVRGRIDAGRLAVAGHSMGGGGTLEAAAARPSLQAAVPLAPWNLDKTWSGVTVPTLIVGGESDSVAPVASHSVPFYNSIPASSEKAYLELNGASHFFPQSVNTPTAKQMVAWLKRFVDNDTRYEQFLCPGPSGLAIEEYRNTCPSS [TEP018],40.6 C,65.6 µg,< 3,< 3,< 3,< 3,< 3,< 3,< 3,< 3,–,–
VQIGPAPTKASLEASRGPFTVATTRLSANGHGGGTIYYPTNAGAKVGVIAIVPGYLSYQSSIEWWGPRLASHGFAVVTIDTLTIYDQPSSRSSQQLRALDQVVALGSKSTSPLYNKVDGSRTGVMGWSMGGGGSLISAQNRPSIKAAAPQAPWNTTSNFSSLTVPTLIFACQADVVAPILSHAVPFYNSMSRNPKQYLERTAGDHFCFNNANPTVGLKGVAWMKRFIDGDTRYTSFACSNPNALGFSSFRTERCS [ESM053],62.8 C,103 µg,< 3,6,10,32,< 3,< 3,6,10,–,–
ADNPYQRGPDPTLASVAASRGPFATTQATVPPGNGFNGGYVYYPTDTSLGTWGAVAIVPGYSALFANEEAWMGPWLASFGFVVLGIETNSRNDGADARATQLLAALDYLTQSSPVRNRVDPNRLSVMGHSAGGAGTLMAALRRPSLKTAVGLAPGAPGNSLNMSTTKVPTMLISGQNDGTVTPSYVQGIYNTLPASVEHAWAELAGNDHLSFTRPNPTEMRILIPWLKIFLDNDTRYTQFLCPLADSTGVSRYNSTCPLVPPGVPTSPPTTPPTSTPPPTGPPTSPPPPTTTPPPAGGACTATYRTVGSWSGGFQGEVTVTAGSAAINGWTVRLDLGGGQSISQVWNGTLSTSGSTATVRNVSYNGSLAAAGSTTFGFLGSGTPPAPTPTCTSP [ESM005],67 C,88.4 µg,< 3,< 3,< 3,< 3,< 3,< 3,< 3,< 3,–,–
AASPYERGPDPTEQTITAERGPFQVATATVPANSASGFNRGTIYYPTDTSQGTFGAVAIIPGFIEPESTMSWYGPRLASQGFVVFTLEPFSVLNFPDDRANQLLAALDYLTGSSSVRSRVDASRLAVMGHSMGGGGTLRAAEMRPSLQAAIPLAPWHLHGDWRNVRVPTMIQAADNDFIAGVGNHAQPFYQNLTNAPEKAYLLFENYGHMSWISANTPIAKYSIAWLKRYVDDDTRYSKFLCPAPGAPSSTFQEYRHTCPD [DP044],69.4 C,28 µg,–,< 3,< 3,< 3,–,–,–,–,< 3,–
DQGPPPTIASLSVDGAYAVMTYTDIPDVPEFGDATVYYPVDTAMPIGGVAISPGWTELQRHIEWWGPRLASHGYAVLILDTNDAMADQPEQRAEALIAAVRILRGENDRAGSPLSGRIDTEKMAIMGHSMGGGGVLIAANNYPAEIQAAIPFTPWQPAGDFSQVVAPTLVMAGSADRVASVSDHAWPHYQSIPESTIKVFLEIDGGSHFIADTSRGEDLGTIGRYGIAWLKLYLDGDERYRGFIYGDEAASDSEKFSRYVTSP [TEP021],30.7 C,76.5 µg,< 3,< 3,< 3,< 3,< 3,< 3,< 3,< 3,–,–
